Data from patent publication US9458437B2, “Neuroprotective peptides that inhibit interaction between palmitoyl acyl transferase zinc-finger DHHC type containing 17 (zD17) and c-jun N-terminal kinase (JNK)” (The University of British Columbia, priority 2011, dated 2016).

Tests used:
JNK1 = biological target: T1, JNK1 (Rattus norvegicus, UniProt P49185); assay: kinase assay (KA) on JNK1 immunoprecipitated from cell lysates; type: cell-based; conditions: for JNK1 activity normalized to 0 h: NMDA + NIMoE
T1 construct: JNK is immunoprecipitated from the cell lysate; endogenous in cells; host or cells: rat primary neuronal cultures; JNK1 immunoprecipitated from lysate
T1 sequence (P49185 whole entry): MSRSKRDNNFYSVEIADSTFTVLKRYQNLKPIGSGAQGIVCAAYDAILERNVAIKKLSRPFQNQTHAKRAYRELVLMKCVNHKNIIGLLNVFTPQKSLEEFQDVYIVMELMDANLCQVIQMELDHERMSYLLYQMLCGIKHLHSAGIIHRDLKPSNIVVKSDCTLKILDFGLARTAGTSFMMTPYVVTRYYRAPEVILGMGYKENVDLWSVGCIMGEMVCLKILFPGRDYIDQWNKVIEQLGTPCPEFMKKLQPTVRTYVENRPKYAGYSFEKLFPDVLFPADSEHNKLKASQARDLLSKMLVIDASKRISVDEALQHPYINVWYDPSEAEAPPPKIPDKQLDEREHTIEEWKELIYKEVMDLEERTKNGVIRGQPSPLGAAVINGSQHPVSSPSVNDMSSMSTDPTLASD
Description: (§1) JNK activity was measured with an in vitro kinase assay as described elsewhere (see, for e.g.: Khatlani et al., 2007). Briefly, cell lysates were prepared and JNK was immunoprecipitated with specific antibodies. The immnoprecipitates were then resuspended in 1× kinase buffer (Cell Signaling Technology™) supplemented with 200 μM ATP and 250 μg/ml GST-c-jun (1-89), and incubated at 30° C. for 30 min. Reactions were terminated by the addition of SDS-PAGE sample buffer. Phosphorylated c-jun was resolved by SDS-PAGE and detected with anti-p-c-jun.

JNK2 = biological target: T2, JNK2 (Rattus norvegicus, UniProt P49186); assay: kinase assay (KA) on JNK2 immunoprecipitated from cell lysates; type: cell-based; conditions: for JNK2 activity normalized to 0 h: NMDA + NIMoE
T2 construct: JNK is immunoprecipitated from the cell lysate; endogenous in cells; host or cells: rat primary neuronal cultures; JNK2 immunoprecipitated from lysate
Description: as §1

zD17-JNK3 interaction = zD17-JNK3 interaction (Rattus norvegicus, UniProt P49187); assay: zD17-JNK3 interaction in the injured hemisphere after MCAo; type: in vivo, Sprague-Dawley rat; parameters: Lysates of rat brain tissues were precleaned with IgG and protein A-beads; from tissue; host or cells: brain (injured left hemisphere) of adult male Sprague-Dawley rats; conditions: single intravenous injection 30 min before MCAo
Sequence of zD17-JNK3 interaction (P49187 whole entry): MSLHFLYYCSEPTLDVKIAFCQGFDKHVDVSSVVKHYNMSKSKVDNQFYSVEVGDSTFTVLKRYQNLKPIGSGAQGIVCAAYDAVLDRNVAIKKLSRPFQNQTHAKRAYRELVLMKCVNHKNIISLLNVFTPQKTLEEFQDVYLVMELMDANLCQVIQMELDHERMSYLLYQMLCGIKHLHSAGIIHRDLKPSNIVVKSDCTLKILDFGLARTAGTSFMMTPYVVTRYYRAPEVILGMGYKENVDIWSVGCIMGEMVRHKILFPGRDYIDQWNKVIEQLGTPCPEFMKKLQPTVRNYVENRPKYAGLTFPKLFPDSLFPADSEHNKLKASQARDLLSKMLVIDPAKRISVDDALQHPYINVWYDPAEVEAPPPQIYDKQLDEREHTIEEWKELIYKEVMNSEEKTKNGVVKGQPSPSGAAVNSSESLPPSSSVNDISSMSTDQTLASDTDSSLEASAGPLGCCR
Description: The protocols for protein extraction have been described previously (Yang et al., 2009). For co-immunoprecipitation, cultured cells were washed with ice-cold PBS followed by incubation with 0.5 ml Gentle Lysis Buffer (GLB) containing 25 mM Tris-HCl (pH 7.4), 2 mM EDTA, 1 mM EGTA, 10 mM NaCl, 0.5% Triton X-100 and 10% Glycerol supplemented with the Complete Protease Inhibitor Tablets (Roche Applied Science™, Indianapolis, Ind., USA) and 1 mM PMSF. Total protein concentration was determined with the BioRad™ Protein Assay kit. […] Immunoprecipitates were washed three times with GLB buffer; boiled in 2× loading buffer with 1 mM dithiothreitol (DTT) for 3 min; and analyzed with SDS-PAGE as described previously (Yang et al., 2009). The relative intensities of the bands on immunoblots were analyzed and quantified using Image J™ (NIH). […]
Peptides were synthesized by PepMetric Technologies™ or GL Biochem™ (Shanghai, China). […] Injections of NIMoEscr and NIMoEsh were made, brain damage was assessed and functional evaluations performed in a double-blind manner To examine the delivery of the peptide into the brain, 5 mg/kg FITC-labelled NIMoE or only saline was intravenously injected 1 h before perfusion. […]

[1] = test system: middle cerebral artery occlusion (MCAo); assay: transient MCAo in SD rats, neurological scores; type: in vivo, Sprague-Dawley rat
Description: Adult male Sprague-Dawley (SD) rats weighing 250-290 g were employed for transient middle cerebral artery occlusion. Rats were anaesthetized with 5% isofluorane and maintained with 2% isofluorane in 70% N2O and 30% O2 using a face mask. 5 mg/kg ketoprofen was given pre-surgery to block pain. Rectal temperature was maintained at 37° C. during surgery with a homeothermic blanket system (Harvard Apparatus™, Holliston, Mass.). The scalp was incised at the midline and the skull was exposed. The skull was thinned with a dental drill at a region ipsilateral to the expected ischemia zone (2 mm posterior and 5 mm lateral from the bregma). […]
Peptides were synthesized by PepMetric Technologies™ or GL Biochem™ (Shanghai, China). […] Injections of NIMoEscr and NIMoEsh were made, brain damage was assessed and functional evaluations performed in a double-blind manner To examine the delivery of the peptide into the brain, 5 mg/kg FITC-labelled NIMoE or only saline was intravenously injected 1 h before perfusion. […] After rapid freezing in Tissue-Tek™ embedding medium (Sakura™, Torrance, Calif.) on dry ice, 20 μm sections were cut on a cryostat (Leica™ CM3050, Ontario, Canada) and examined for FITC fluorescence by a laser microscopy (Zeiss™, Axiovert 200). […]

Sequence | JNK1 activity normalized to 0 h (JNK1; 0.5 h) | JNK1 activity normalized to 0 h (JNK1; 1 h) | normal activation of JNK1 (JNK1; NMDA, neuronal cultures) | JNK2 activity normalized to 0 h (JNK2; 0.5 h) | JNK2 activity normalized to 0 h (JNK2; 1 h) | enhancement of JNK2 activity (JNK2; NMDA, neuronal cultures) | enhancement of the zD17-JNK3 interaction after MCAo (zD17-JNK3 interaction) | behavioural deficits evaluated with neurological scores ([1]; NIMoEsh administration, MCAo rats) | duration of improvement of behavioural performance ([1]; injected 2 h post-surgery, double-blinded)
MTPLMWAAYRTHSVDPTRLL (listed as Homo sapiens) [NIMoE, peptide comprising motif-E of zD17, fused to the cell-membrane transduction domain of HIV-1 Tat for cell experiments] | 104.3±2.6% | 168.5±3.3% | did not inhibit | 103.7±5.0% | 90.9±10.9% | eliminated the enhancement | – | – | –
WAAYRTHSVD (listed as Homo sapiens) [NIMoEsh, shorter 10mer of NIMoE, primarily the loop region of motif-E (zD17 196-205)] | – | – | – | – | – | – | effectively attenuated | substantially reduced | persisted over 14 days
